This assay has as its target rHA1_(1-326), recombinant hemagglutinin HA1 fragment (residues 1-326) of influenza A virus H1N1 strain A/California/04/2009 (influenza A virus subtype H1N1 strain A/California/04/2009). Briefly: SEC. On the technique in general: SEC sorts molecules by how far they enter the pores of the column.

For “rHA1_(1-326), recombinant hemagglutinin HA1 fragment (residues 1-326) of influenza A virus H1N1 strain A/California/04/2009 (domain or fragment)”, the percent of the protein as dimers and trimers was 70.5%.
